Measurements taken from US20230125500A1, “ANGIOSTATIN NEUTRALIZING PEPTIDES DERIVED FROM ATP SYNTHASE ALPHA SUBUNIT” (The Governors of the University of Alberta, priority 2021, published 2023).

B1: angiostatin (protein)
chain: YLSECKTGNGKNYRGTMSKTKNGITCQKWSSTSPHRPRFSPATHPSEGLEENYCRNPDNDPQGPWCYTTDPEKRYDYCDILECEEECMHCSGENYDGKISKTMSGLECQAWDSQSPHAHGYIPSKFPNKNLKKNYCRNPDRELRPWCFTTDPNKRWELCDIPRCTTPPPSSGPTYQCLKGTGENYRGNVAVTVSGHTCQHWSAQTPHTHNRTPENFPCKNLDENYCRNPDGKRAPWCHTTNSQVRWEYCKIPSCDSSPVSTEQLAPTAPPELTPVVQDCYHGDGQSYRGTSSTTTTGKKCQSWSSMTPHRHQKTPENYPNAGLTMNYCRNPDADKGPWCFTTDPSVRWEYCNLKKCSGTEA

How the values were obtained:
angiostatin kringles 1-4 = molecular target: T1, angiostatin kringles 1-4 (Homo sapiens, UniProt P00747); experiment: Immunoprecipitation of angiostatin K1-4 after incubation with trypsinized ATP synthase subunit α, mass spectrometry of bound peptides; format: binding; settings: for abundance based on peptide spectral matches (PSMs): angiostatin-bound peptides after immunoprecipitation; for binding to angiostatin (immunoprecipitation, mass spectrometry): peptides from trypsin digest of recombinant F1F0 ATP synthase subunit α incubated with purified angiostatin kringles 1-4
T1 construct: the resulting peptides incubated with purified angiostatin kringles 1-4
T1 sequence (P00747 79-466 limits assumed): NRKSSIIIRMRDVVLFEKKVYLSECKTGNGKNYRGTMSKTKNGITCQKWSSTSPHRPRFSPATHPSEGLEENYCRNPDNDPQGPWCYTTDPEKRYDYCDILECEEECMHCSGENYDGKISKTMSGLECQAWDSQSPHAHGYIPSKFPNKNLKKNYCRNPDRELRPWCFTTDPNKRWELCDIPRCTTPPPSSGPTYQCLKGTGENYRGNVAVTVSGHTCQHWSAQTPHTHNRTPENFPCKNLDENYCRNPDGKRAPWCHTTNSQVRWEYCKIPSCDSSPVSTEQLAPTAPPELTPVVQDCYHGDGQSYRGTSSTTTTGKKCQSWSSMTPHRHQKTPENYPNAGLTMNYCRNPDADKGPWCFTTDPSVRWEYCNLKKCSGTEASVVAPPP
Procedure: Trypsin digestion of ATP synthase subunit α. Recombinant F1F0 ATP synthase subunit α was digested with trypsin, and following heat-inactivation of trypsin the resulting peptides incubated with purified angiostatin kringles 1-4. Subsequently, the angiostatin was immunoprecipitated and submitted for mass spectroscopy analysis to identify any potential bound peptides of subunit α.

eNOS protein expression = experiment: Immunoblot of eNOS in angiostatin-treated hypoxic HMVEC-C; format: cell-based, Human; settings: 48 hours hypoxic conditions, peptides tested with angiostatin
Procedure: (§1) Cell culture and hypoxia. Cardiac-derived Human microvascular endothelial cells from (HMVEC-C) were obtained from Lonza (Walkersville, Md., USA) and cultured in a humidified atmosphere at 37° C. and 5% CO2 in EGM-2 MV. Depending on the donor, the primary endothelial cells were serum starved for 4-16 h in EBM-2 and 0.5% FBS prior to exposure to hypoxic conditions. The time of serum starvation prior to treatment was titrated to induce approximately 40% apoptosis following treatment under normoxic conditions. Hypoxia was induced by exposing endothelial cells for 48 h under serum-starved conditions in a Billups-Rothenberg chamber continuously gassed with 95% N2-5% CO2.
(§2) Immunoblots. HMVEC-L lysates were subjected to 8% sodium dodecyl sulfate-polyacrylamide gel electrophoresis Blots were blocked overnight in TTBS and 5% non-fat milk and then cut at the 50 KDa across the membrane. Subsequently the >50 KDa upper membrane was incubated with either rabbit anti-human MMP-14 (MT1-MMP) (1 μg/ml) (Millipore) (Etobicoke, ONT, Canada), or mouse anti-eNOS (1:1000) (Abcam) (Toronto, ONT, Canada) for 2 h. Anti-mouse (1:10,000), or anti-rabbit (1:5000) horseradish peroxidase-conjugated antibodies were used as the secondary antibodies (Sigma, Oakville, ON, Canada). […] Blot bands were quantified using ImageJ software (Bio-Rad, Mississauga, ON, Canada) and expressed as arbitrary units of density per β-actin.

[1] = system: MT1-MMP protein expression; experiment: Immunoblot of MT1-MMP (MMP-14) in angiostatin-treated hypoxic HMVEC-C; format: cell-based, Human; settings: 48 hours hypoxic conditions, peptides tested with angiostatin
Procedure: as §1, §2

MMP-2 protein expression = experiment: Gelatin zymography of MMP-2 in HMVEC-C lysates; format: cell-based, Human; settings: 48 hours hypoxic conditions, peptides tested with angiostatin
Procedure: as §1
Gelatin zymography. Gelatin zymography was used to assess MMP-2 levels within HMVEC-C lysates. Zymography was performed using 8% SDS-PAGE with copolymerized gelatin (2 mg/ml). After electrophoresis, gels were washed 3× for 20 min in 2% Triton X-100. Next, gels were washed 2· for 20 min in developing buffer (50 mM Tris-HCl pH 7.6, 150 mM NaCl, 5 mM CaCl2), and 0.05% NaN3) and then incubated in developing buffer at 37° C. overnight. Gels were stained with 0.05% Coomassie Brilliant Blue and then destained in a 4% ethanol and 8% acetic acid solution. Gelatinolytic activity was detected as transparent bands against a blue background of Coomassie-stained gelatin. […]

fibrinolysis = experiment: In vitro fibrinolysis assay in citrated human plasma; format: biochemical; settings: recalcified human plasma, thrombin + tPA 1 μg/ml, 2 hours 37° C.; combined peptides each 1 μM, aprotinin 10 μM
Procedure: Fibrinolysis Assays. Citrated human plasma (platelet-free) was recalcified to a final free Ca^2+ concentration of 2.5 mM. After recalcification, plasma was incubated with a peptide 1, 2, 3, or with combined a peptides 1-3 (each 1 μM), or with negative control 8 peptide (3 μM) or with aprotinin (10 μM) as positive control for inhibiting fibrinolysis. To initiate clotting ice-cold thrombin (0.3 U/ml) was added to each well, while to initiate fibrinolysis human tissue plasminogen activator (1 μg/ml; Sigma) was added. After 2 hours incubation at 37° C. the absorbance at 405 nm was measured using a Bio-Rad iMark microplate reader and the results were expressed as percent fibrinolysis.

HMVEC-C = experiment: Endothelial cell migration assay under hypoxia; format: cell-based, Human; settings: hypoxia 48 hours, VEGF 10 ng/ml chemoattractant, angiostatin 600 nM; combined peptides 1 μM each
Procedure: Migration assays. 24-well plate inserts with […] pores (Falcon Corning, Tewksbury, Mass., USA) were coated with 1 mg/ml gelatin and incubated at 37° C. for 2 hours to allow gelatin to solidify. Excess gelatin was aspirated and inserts were left to dry overnight under UV light, then gently washed once with 100μl of PBS. Once approximately 80% confluent, HMVEC-C were serum starved for 8 hours in 0.5% FBS in EBM-2. Cells were trypsinized and seeded into the top chamber of the gelatin-coated inserts at a concentration of 25 000 cells/insert. Recombinant VEGF (10 ng/ml) in 0.5% FBS in EBM-2 was added to the corresponding bottom chambers to serve as a chemoattractant. HMVEC-C were treated with PBS control, angiostatin (600 nM), angiostatin (600 nM)+a peptide 1 through 3 (3 μM), angiostatin (600 nM)+negative-control 6 peptide (3 μM), and angiostatin (600 nM)+combined a peptide 1-3 (1 μM each). The system was incubated in hypoxia (95% N2, 5% CO2) for 48 hours. After incubation, the top layer of each insert was scraped gently using a Q-tip to remove the non-migrated cells. Migrated cells at the bottom of the insert were fixed in 4% formaldehyde in PBS for five minutes, followed by staining using Diffquik stain (Siemens Healthcare Diagnostics Inc., Newark, Del., USA). […] Cells were counted using ImageJ software, and expressed as migration percent of PBS control.

| Molecule | abundance based on peptide spectral matches (PSMs) (angiostatin kringles 1-4) | binding to angiostatin (immunoprecipitation, mass spectrometry) (angiostatin kringles 1-4) | eNOS levels (immunoblot) (eNOS protein expression) | MT1-MMP levels (immunoblot) [1] | MMP-2 levels (gelatin zymography) (MMP-2 protein expression) | other results |
| --- | --- | --- | --- | --- | --- | --- |
| AVDSLVPIGR [Alpha peptide 3] | medium abundance | bound to angiostatin |  |  |  |  |
| TGTAEMSSILEER [Alpha peptide 1] | high abundance | bound to angiostatin |  |  |  |  |
| TSIAIDTIINQK [Alpha peptide 2] | medium abundance | bound to angiostatin |  |  |  |  |
| VPTLQVLRPGLVV [delta peptide, reference compound] |  |  | failed to significantly increase | failed to significantly increase | failed to significantly increase |  |
| aprotinin |  |  |  |  |  | inhibition of fibrinolysis (fibrinolysis): fibrinolysis inhibitor |
| B1 |  |  | significant reduction | significant reduction | significant reduction | HMVEC-C migration (HMVEC-C): decreased |
